Results reported in US6596687B1, “Cell adhesion inhibitors” (Biogen, Inc., priority 1995, dated 2003).
Square brackets hold non-standard residues; d marks the D form. 2‑MPUB = not defined here

B1: Compound 343 (peptide)
peptide: H-[dP][dV][dD][dL]-{2‑MPUB}
modifications: reading uncertain
B2: Compound 339 (peptide)
peptide: VLPD
HELM: PEPTIDE1{[Cc1ccccc1NC(=O)Nc1ccc(CC(=O)[*:2])cc1].V.L.P.D}$$$$V2.0
SMILES: Cc1ccccc1NC(=O)Nc1ccc(CC(=O)N[C@H](C(=O)N[C@@H](CC(C)C)C(=O)N2CCC[C@H]2C(=O)N[C@@H](CC(=O)O)C(=O)O)C(C)C)cc1
B3: Compound 341 (peptide)
peptide: LPVD
HELM: PEPTIDE1{[Cc1ccccc1NC(=O)Nc1ccc(CC(=O)[*:2])cc1].L.P.V.D}$$$$V2.0
SMILES: Cc1ccccc1NC(=O)Nc1ccc(CC(=O)N[C@@H](CC(C)C)C(=O)N2CCC[C@H]2C(=O)N[C@H](C(=O)N[C@@H](CC(=O)O)C(=O)O)C(C)C)cc1
B4: Compound 337 (peptide)
peptide: {2‑MPUPA}-LDVPS-OH
B5: Compound 153 (peptide)
peptide: FLDV
HELM: PEPTIDE1{[O=C(c1ccccc1)[*:2]].F.L.D.V}$$$$V2.0
SMILES: CC(C)C[C@H](NC(=O)[C@H](Cc1ccccc1)NC(=O)c1ccccc1)C(=O)N[C@@H](CC(=O)O)C(=O)N[C@H](C(=O)O)C(C)C
B6: Compound 338 (peptide)
peptide: LDVPST
HELM: PEPTIDE1{[Cc1ccccc1NC(=O)Nc1ccc(CC(=O)[*:2])cc1].L.D.V.P.S.T}$$$$V2.0
SMILES: Cc1ccccc1NC(=O)Nc1ccc(CC(=O)N[C@@H](CC(C)C)C(=O)N[C@@H](CC(=O)O)C(=O)N[C@H](C(=O)N2CCC[C@H]2C(=O)N[C@@H](CO)C(=O)N[C@H](C(=O)O)[C@@H](C)O)C(C)C)cc1

Key:
[1] = biological target: VLA-4 (alpha4beta1 integrin) (UniProt P13612); test: Ramos/BSA-CS1 adhesion inhibition
Sequence of VLA-4 (alpha4beta1 integrin) (UniProt P13612) (P13612 34-1032 limits assumed, chain 1 of 2): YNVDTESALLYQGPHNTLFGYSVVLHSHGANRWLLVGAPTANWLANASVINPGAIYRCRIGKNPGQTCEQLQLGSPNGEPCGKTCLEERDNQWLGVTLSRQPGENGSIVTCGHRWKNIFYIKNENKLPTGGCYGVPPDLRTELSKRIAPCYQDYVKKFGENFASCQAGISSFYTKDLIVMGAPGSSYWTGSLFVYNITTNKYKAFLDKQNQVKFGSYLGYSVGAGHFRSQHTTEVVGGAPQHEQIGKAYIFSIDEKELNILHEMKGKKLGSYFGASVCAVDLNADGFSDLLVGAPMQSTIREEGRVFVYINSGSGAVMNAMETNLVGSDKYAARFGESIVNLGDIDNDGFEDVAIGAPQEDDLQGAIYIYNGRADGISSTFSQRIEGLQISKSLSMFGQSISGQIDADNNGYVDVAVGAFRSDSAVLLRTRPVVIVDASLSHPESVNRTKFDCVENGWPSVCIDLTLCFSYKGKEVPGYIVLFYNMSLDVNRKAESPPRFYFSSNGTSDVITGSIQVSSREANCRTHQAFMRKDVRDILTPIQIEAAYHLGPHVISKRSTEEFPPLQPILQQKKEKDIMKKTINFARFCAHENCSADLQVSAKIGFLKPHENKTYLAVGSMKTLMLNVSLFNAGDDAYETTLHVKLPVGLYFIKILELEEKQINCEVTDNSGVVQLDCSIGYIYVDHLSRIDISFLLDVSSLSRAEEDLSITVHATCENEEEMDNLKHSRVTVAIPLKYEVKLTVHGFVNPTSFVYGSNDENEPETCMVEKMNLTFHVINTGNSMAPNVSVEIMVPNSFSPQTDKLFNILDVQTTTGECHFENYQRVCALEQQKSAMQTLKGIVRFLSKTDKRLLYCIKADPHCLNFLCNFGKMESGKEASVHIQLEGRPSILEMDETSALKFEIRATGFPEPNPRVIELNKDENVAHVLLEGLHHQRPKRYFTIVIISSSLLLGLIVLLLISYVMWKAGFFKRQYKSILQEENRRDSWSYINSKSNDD
Sequence of VLA-4 (alpha4beta1 integrin) (UniProt P13612) (P05556 21-798 limits assumed, chain 2 of 2, further chain): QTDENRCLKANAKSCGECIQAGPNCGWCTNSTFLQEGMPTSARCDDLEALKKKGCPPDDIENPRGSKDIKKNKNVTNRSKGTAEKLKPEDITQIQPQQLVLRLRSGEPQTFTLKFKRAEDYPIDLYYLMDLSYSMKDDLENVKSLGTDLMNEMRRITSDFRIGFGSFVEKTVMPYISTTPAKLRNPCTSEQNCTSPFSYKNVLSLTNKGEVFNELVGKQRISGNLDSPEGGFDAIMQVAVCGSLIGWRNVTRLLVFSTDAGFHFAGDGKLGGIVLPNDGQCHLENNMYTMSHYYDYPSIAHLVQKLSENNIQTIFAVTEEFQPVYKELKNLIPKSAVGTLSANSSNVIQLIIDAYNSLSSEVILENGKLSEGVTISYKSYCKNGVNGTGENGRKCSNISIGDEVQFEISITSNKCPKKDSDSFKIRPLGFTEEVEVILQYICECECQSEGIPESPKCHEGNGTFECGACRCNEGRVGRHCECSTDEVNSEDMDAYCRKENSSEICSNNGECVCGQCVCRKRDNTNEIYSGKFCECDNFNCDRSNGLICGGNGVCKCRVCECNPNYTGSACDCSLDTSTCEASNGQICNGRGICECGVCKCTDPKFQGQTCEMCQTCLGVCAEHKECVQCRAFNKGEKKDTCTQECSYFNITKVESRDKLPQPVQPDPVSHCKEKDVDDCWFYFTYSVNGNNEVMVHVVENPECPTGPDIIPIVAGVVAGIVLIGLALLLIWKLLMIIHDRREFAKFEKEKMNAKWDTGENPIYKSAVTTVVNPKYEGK

[2] = biological target: T1, VLA-4 (alpha4beta1 integrin) (UniProt P13612 34-1032; P05556 21-798, limits assumed); test: Ramos/BSA-CS1 adhesion inhibition
T1 construct: whole, on cells; also called very late antigen-4; CD49d/CD29
T1 sequence (P13612 34-1032 limits assumed, chain 1 of 2): as the sequence (P13612 34-1032 limits assumed, chain 1 of 2) above
T1 sequence (P05556 21-798 limits assumed, chain 2 of 2): as the sequence (P05556 21-798 limits assumed, chain 2 of 2, further chain) above
Protocol: Following labelling, the cells were washed twice in assay buffer (24 mM TRIS, 137 mM NaCl, 2.7 mM KCl, pH 7.4, containing 0.1 BSA and 2mM glucose) to remove any cations originating from the culture medium. The cells were then resuspended in assay buffer to 4 ×10^6 cells/mL and 2 mM MnCl_2 was added to upregulate VLA4 on the surface of the cells.
Immediately prior to running the assay, we removed the BSA blocking solution from the 96-well plates and washed the wells with 100 μL of assay buffer. We then added to each well 25 μL of test cell adhesion inhibitory compound at 2×the final concentration and 25 μL of the labelled Ramos cells. […] Each concentration of compound was tested in triplicate. The compound and cells are allowed to incubate for 30 minutes at room temperature.
Percent binding is calculated by the formula: […]

Row | Binder | IC50 [1] [µM] | IC50 [2] [µM]
1 | B1 | > 10 | 
2 | B2 |  | > 10
3 | B3 |  | > 10
4 | B4 |  | < 0.05
5 | B5 |  | > 10
6 | B6 |  | < 0.05
